From publication PMC7037651, “Chemically Crosslinked Bispecific Antibodies for Cancer Therapy: Breaking from the Structural Restrictions of the Genetic Fusion Approach” (International Journal of Molecular Sciences, 2020)
Each block holds one molecule with its values, some of them ahead of it.

Key:
[1] = target: soluble EGFR (sEGFR) (UniProt P00533); experiment: SPR; Biacore 2000; sEGFR immobilised on a CM5 chip at the lower amount (1073 to 1122 RU); PBS with 0.005% Tween20; scFv monomer or dimer injected for 120 s at 10 to 250 nM; global fit, 1:1 Langmuir model
[2] = target: soluble EGFR (sEGFR) (UniProt P00533); experiment: SPR; Biacore 2000; sEGFR immobilised on a CM5 chip at the higher amount (2605 to 2833 RU); PBS with 0.005% Tween20; scFv monomer or dimer injected for 120 s at 10 to 250 nM; global fit, 1:1 Langmuir model
[3] = target: soluble EGFR (sEGFR) (UniProt P00533); experiment: SPR; Biacore 2000; sEGFR immobilised on a CM5 chip (amount not given for Tables 2 and 5); running buffer PBS with 0.005% Tween20; scFv monomer or dimer injected for 120 s at 10 to 250 nM; global fit, 1:1 Langmuir model
[4] = target: T1, EGFR on A431 cells (Homo sapiens (A431 cells), UniProt P00533); experiment: flow cytometry on cells; competitive binding: 10^6 A431 cells mixed with non-labeled scFv or dimer (50 pmol), washed, then various amounts of FITC-labeled wild-type h528 scFv added; on ice; details: one partner purified
T1 construct: epidermal growth factor receptor on A431, a human epidermoid carcinoma line; also called target-expressing cells; A431 (EGFR-positive tumor cell line); source: endogenous, on A431 cells

[5] = target: T2, soluble EGFR (sEGFR) (Homo sapiens (assumed; EGFR on human …, UniProt P00533); experiment: SPR; Biacore 2000; sEGFR immobilised on a CM5 chip at the lower amount (1073 to 1122 RU); PBS with 0.005% Tween20; scFv monomer or dimer injected for 120 s at 10 to 250 nM; global fit, 1:1 Langmuir model; details: both partners purified
T2 construct: soluble epidermal growth factor receptor (sEGFR); also called epidermal growth factor receptor; immobilized EGFR; source: prepared as described previously [28]

[6] = target: T2, soluble EGFR (sEGFR); experiment: SPR; Biacore 2000; sEGFR immobilised on a CM5 chip at the higher amount (2605 to 2833 RU); PBS with 0.005% Tween20; scFv monomer or dimer injected for 120 s at 10 to 250 nM; global fit, 1:1 Langmuir model; details: both partners purified
[7] = target: T2, soluble EGFR (sEGFR); experiment: SPR; Biacore 2000; sEGFR immobilised on a CM5 chip (amount not given for Tables 2 and 5); running buffer PBS with 0.005% Tween20; scFv monomer or dimer injected for 120 s at 10 to 250 nM; global fit, 1:1 Langmuir model; details: both partners purified

Kd [1]: 18 nM
koff [1]: 0.0012 s⁻¹
kon [1]: 62000 M⁻¹ s⁻¹
Kd [2]: 23 nM
koff [2]: 0.0015 s⁻¹
kon [2]: 63000 M⁻¹ s⁻¹
Molecule: tail–tail bivalent h528 scFv dimer with C6 linker

Kd [1]: 159 nM
Molecule: side–tail bivalent h528 scFv dimer with C6 linker

Kd [1]: 149 nM
koff [1]: 0.005 s⁻¹
kon [1]: 34000 M⁻¹ s⁻¹
Kd [2]: 109 nM
koff [2]: 0.0047 s⁻¹
kon [2]: 43000 M⁻¹ s⁻¹
Molecule: side–tail bivalent h528 scFv dimer with C1 linker

Kd [2]: 34 nM
Molecule: side–side bivalent h528 scFv dimer with C6 linker

Kd [3]: 26 nM
koff [3]: 0.0052 s⁻¹
kon [3]: 196000 M⁻¹ s⁻¹
B1: wild-type humanized 528 (h528) scFv (scFv, V domains shown)
VH: QVQLVQSGAEVKKPGASVKVSCKASGYTFTSYWMHWVRQAPGQGLEWMGNIYPGSGGTNYAEKFKNRVTMTRDTSISTAYMELSRLRSDDTAVYYCARSGGPYFFDYWGQGTLVTVSS
VL: DIVMTQSPLSLPVTPGEPASISCRSSQNIVHNNGITYLEWYLQKPGQSPQLLIYKVSDRFSGVPDRFSGSGSGTDFTLKISRVEAEDVGVYYCFQGSHIPPTFGQGTKVEIK

The next lines start with the molecule.

Molecule: side–side bivalent h528 scFv dimer with C1 linker
Kd [1]: 78 nM

B2: FITC-labeled wild-type h528 scFv (scFv, V domains shown)
VH: QVQLVQSGAEVKKPGASVKVSCKASGYTFTSYWMHWVRQAPGQGLEWMGNIYPGSGGTNYAEKFKNRVTMTRDTSISTAYMELSRLRSDDTAVYYCARSGGPYFFDYWGQGTLVTVSS
VL: DIVMTQSPLSLPVTPGEPASISCRSSQNIVHNNGITYLEWYLQKPGQSPQLLIYKVSDRFSGVPDRFSGSGSGTDFTLKISRVEAEDVGVYYCFQGSHIPPTFGQGTKVEIK
notes: linker (GGGGS)3; m4 with a fluorescein label; also called fluorescently labeled wild-type scFv; labeled wild-type scFv
binding result [4]: binds

B3: LK103-0K h528 scFv (scFv, V domains shown)
VH: QVQLVQSGAEVAEPGASVQVSCAASGYTFTSYWMHWVRQAPGQGLEWMGNIYPGSGGTNYAEEFQNRVTMTRDTSISTAYMELSRLRSDDTAVYYCARSGGPYFFDYWGQGTLVTVSS
VL: DIVMTQSPLSLPVTPGEPASISCRSSQNIVHNNGITYLEWYLQRPGQSPQLLIYQVSDRFSGVPDRFSGSGSGTDFTLTISRVEAEDVGVYYCFQGSHIPPTFGQGTKVEIE
notes: linker (GGGGS)3; lysine kept at L103; also called LK103-0K scFv
Kd [5]: 221 nM
koff [5]: 0.0086 s⁻¹
kon [5]: 39000 M⁻¹ s⁻¹
Kd [6]: 207 nM
koff [6]: 0.0089 s⁻¹
kon [6]: 43000 M⁻¹ s⁻¹
Kd [7]: 205 nM
koff [7]: 0.0086 s⁻¹
kon [7]: 42000 M⁻¹ s⁻¹

B4: 0KCDR h528 scFv (scFv, V domains shown)
VH: QVQLVQSGAEVKKPGASVKVSCKASGYTFTSYWMHWVRQAPGQGLEWMGNIYPGSGGTNYAEEFQNRVTMTRDTSISTAYMELSRLRSDDTAVYYCARSGGPYFFDYWGQGTLVTVSS
VL: DIVMTQSPLSLPVTPGEPASISCRSSQNIVHNNGITYLEWYLQKPGQSPQLLIYQVSDRFSGVPDRFSGSGSGTDFTLKISRVEAEDVGVYYCFQGSHIPPTFGQGTKVEIK
notes: linker (GGGGS)3; it looks like Kabat numbering; also called 0KCDR scFv
Kd [7]: 38 nM
koff [7]: 0.0054 s⁻¹
kon [7]: 141000 M⁻¹ s⁻¹

B5: HK19-0K h528 scFv (scFv, V domains shown)
VH: QVQLVQSGAEVAEPGASVKVSCAASGYTFTSYWMHWVRQAPGQGLEWMGNIYPGSGGTNYAEEFQNRVTMTRDTSISTAYMELSRLRSDDTAVYYCARSGGPYFFDYWGQGTLVTVSS
VL: DIVMTQSPLSLPVTPGEPASISCRSSQNIVHNNGITYLEWYLQRPGQSPQLLIYQVSDRFSGVPDRFSGSGSGTDFTLTISRVEAEDVGVYYCFQGSHIPPTFGQGTEVEIE
notes: lysine kept at H19; linker (GGGGS)3; 0K scFv with the 19th residue of VH returned to lysine; also called HK19-0K scFv; KH19-0K scFv
Kd [5]: 144 nM
koff [5]: 0.0075 s⁻¹
kon [5]: 52000 M⁻¹ s⁻¹
Kd [6]: 108 nM
koff [6]: 0.0075 s⁻¹
kon [6]: 69000 M⁻¹ s⁻¹
Kd [7]: 135 nM
koff [7]: 0.0079 s⁻¹
kon [7]: 60000 M⁻¹ s⁻¹

B6: 0K h528 scFv (scFv, V domains shown)
VH: QVQLVQSGAEVAEPGASVQVSCAASGYTFTSYWMHWVRQAPGQGLEWMGNIYPGSGGTNYAEEFQNRVTMTRDTSISTAYMELSRLRSDDTAVYYCARSGGPYFFDYWGQGTLVTVSS
VL: DIVMTQSPLSLPVTPGEPASISCRSSQNIVHNNGITYLEWYLQRPGQSPQLLIYQVSDRFSGVPDRFSGSGSGTDFTLTISRVEAEDVGVYYCFQGSHIPPTFGQGTEVEIE
notes: linker (GGGGS)3; it looks like Kabat numbering; also called h528 scFv without lysine in the CDR and FR
Kd [7]: 137 nM
koff [7]: 0.0082 s⁻¹
kon [7]: 60000 M⁻¹ s⁻¹
